The target of this test is T1, Rab40A (on the HuProt array) (human, UniProt Q8WXH6 1-277).
T1 sequence: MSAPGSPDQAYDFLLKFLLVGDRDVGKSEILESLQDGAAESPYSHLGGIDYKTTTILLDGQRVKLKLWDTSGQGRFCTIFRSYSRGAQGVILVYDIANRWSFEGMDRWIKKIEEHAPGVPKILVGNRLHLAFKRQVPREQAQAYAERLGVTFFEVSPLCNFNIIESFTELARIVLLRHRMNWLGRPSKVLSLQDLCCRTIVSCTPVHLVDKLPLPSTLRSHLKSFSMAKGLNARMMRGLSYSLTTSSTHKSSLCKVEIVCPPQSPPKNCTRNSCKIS
Kind of test: peptide or protein array.

B1: HIS-RhoU (natural protein)
chain: not shown
Take B1: the binding result is recorded as “binds”.

(Values after paper PMC4657161 (The Journal of Cell Biology, 2015).)
